The data set can be described thus: protein stability index of a GFP-peptide fusion (GPS, HEK-293T) (PSI 1-6); higher = more stable.
[1] abbreviates: treatment: DMSO, c terminus: a fixed tail appended.
Setting [2] is: treatment: MLN4924 1 uM, 8 h, c terminus: a fixed tail appended.

± gives the standard deviation.
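Further: 24-mer peptide tiles fused after GFP, lentivirally expressed, FACS-sorted into six equal bins by GFP/DsRed ratio, decoded by Illumina sequencing, PSI is the read-weighted mean bin number.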

On to KLRHDLKKTSITQQPSKHRTDEEL [PLK2], for which the protein stability index under setting [1] came to 4.915 ± 0.039 and the protein stability index under setting [2] is 5.1 ± 0.15. KLSGFMSKLVPAIQNAHKNSTGSG [TPRG1]: the protein stability index is, setting by setting: under setting [1], 2.72 ± 0.2; under setting [2], 3.03 ± 0.23. Regarding KMPVYSGSRPACQLQVPTLRQQCA [ELOA2], the protein stability index by setting is: under setting [1], 3.23 ± 0.32; under setting [2], 3.14 ± 0.15. On to KNLKIWNVHTGEFRNCGACVTLMQ [WDR88], for which the protein stability index is, setting by setting: under setting [1], 2.42 ± 0.86; under setting [2], 2.35 ± 0.54. As to KQAKVVARRESGGRPIKPPKKDLE [BRD3], the protein stability index by setting is: under setting [1], 5.08 ± 0.27; under setting [2], 5.05 ± 0.24. With KQKVMTHVSNGCQLLLGVKGHAF [JUNB], the protein stability index by setting is: (treatment: DMSO, c terminus: native) 2.16 ± 0.21; (treatment: MLN4924 1 uM, 8 h, c terminus: native) 2.23 ± 0.21.

As for KRESPGVGGGSGDEASAATPPSSR [ZBTB22], the protein stability index came out at 5.53 ± 0.23 under setting [1] and 5.451 ± 0.044 under setting [2].

In the case of KRKEEEALKDSLRPKLSEEQQRII [VDR], the protein stability index was found to be 5.09 ± 0.26 under setting [1] and 5.06 ± 0.23 under setting [2]. As to KRKLDTILNLERDVEDLQRDKARL [NFE2L1], the protein stability index reads like this: under setting [1], 4.36 ± 0.25; under setting [2], 4.46 ± 0.17. As to KSCQACRLRKCYEVGMVKCGSRRE [ESR2], the protein stability index is 2.35 ± 0.43 under setting [1] and 3.1 ± 0.33 under setting [2]. Turning to KSDKALMMLFNDGTFQVNFYHDHT [PLK2], the protein stability index by setting is: under setting [1], 1.86 ± 0.32; under setting [2], 2.25 ± 0.14. In the case of KSEGQKIPKVELQISIYGVKILEP [GULP1], the protein stability index under setting [1] was found to be 2.84 ± 1 and the protein stability index under setting [2] was found to be 2.3 ± 1.1. In the case of KSNSYPHQLYTSSSHHSHSYIGLP [KMT2E], the protein stability index reads like this: under setting [1], 3.03 ± 0.17; under setting [2], 3.24 ± 0.26.

As for KSWHDMQTTTAYKKTHETLSHAGQ [TPD52L1], the protein stability index under setting [1] was determined as 4.01 ± 0.15 and the protein stability index under setting [2] worked out at 3.96 ± 0.18. In the case of KSWLNGFRPKDQTSVGMSFVAGGI [SLC25A39], the protein stability index is 2.2 ± 0.18 under setting [1] and 2.43 ± 0.24 under setting [2]. Regarding KTEAEIAHIALETLEGHQRAIMAH [FLOT1], the protein stability index is, setting by setting: under setting [1], 4.1 ± 0.12; under setting [2], 4.06 ± 0.3. In the same order, the values of KTLALARTMDIPRSVQNFRFFASS [ALDH8A1] are 2.58 ± 0.26 and 2.6 ± 0.3. Taken in the same sequence, the figures for KTQICHTLAVTCQLPIDRGGGEGK [RAD51] were 3.81 ± 0.17 and 3.95 ± 0.42. KVLEEGGFFEEKGAIFCPPCYDVR [PDLIM7]: the protein stability index under setting [1] amounted to 2.96 ± 0.29 and the protein stability index under setting [2] came out at 2.92 ± 0.36.

For the sequence KYAVPALEAHCVEFLTKHLRADNA [BTBD1], the protein stability index came out at 2.54 ± 0.25 under setting [1] and 2.74 ± 0.17 under setting [2]. Taken in the same sequence, the figures for KYDVKKVEEVVYDLSIRGFNKETA [TSN] were 3.57 ± 0.31 and 3.64 ± 0.23. Taken in the same sequence, the figures for KYELMRPSNKAPLLVLCEDHRGRM [EHMT1] were 2.57 ± 0.28 and 2.78 ± 0.26.

As for KYPGPQAEGDSEGLSQGLVDREKG [CHGA], the protein stability index is 5.32 ± 0.3 under setting [1] and 5.36 ± 0.12 under setting [2]. For LAAGSAVFDAMFNGGMATTSAEIE [BTBD1], the protein stability index under setting [1] came out at 3.72 ± 0.35 and the protein stability index under setting [2] is 3.75 ± 0.29. On to LAAKALLDQKKQDPRVQDFLQRCL [NET1], for which the protein stability index reads like this: under setting [1], 2.28 ± 0.31; under setting [2], 2.42 ± 0.25. As for LAFLDKIKSVKESLQESVEDSLAT [IQUB], the protein stability index runs as follows: under setting [1], 4.03 ± 0.45; under setting [2], 3.77 ± 0.69. In turn, LALGPILRLYKHNSQALLLHSSIL [MFSD9] showed a protein stability index under setting [1] of 3.12 ± 0.78 and a protein stability index under setting [2] of 2.59 ± 0.37. For LALLPAAWEDSHGSQDGHFVLSCS [SCNN1D], the protein stability index under setting [1] worked out at 2.92 ± 0.083 and the protein stability index under setting [2] is 2.9 ± 0.34. Regarding LAPPPLPLPAAAVVHVSFPEVTSA [ZBTB22], the protein stability index under setting [1] was determined as 3.3 ± 0.3 and the protein stability index under setting [2] amounted to 3.73 ± 0.55.

In the case of LAVAGGPRKTAAPVNALVSHLLVV [ESRRA], the protein stability index under setting [1] was 2.92 ± 0.61 and the protein stability index under setting [2] was 2.85 ± 0.55.

For the sequence LCSPGHERRGTPADTEEPTKDPDV [PSD2], the protein stability index came to 5.66 ± 0.19 under setting [1] and 5.43 ± 0.26 under setting [2].

As to LDADAAQRVVYLEGCGPPLRRWLR [TSPAN10], the protein stability index reads like this: under setting [1], 2.69 ± 0.2; under setting [2], 2.99 ± 0.14. Taken in the same sequence, the figures for LDASGEKMNGSHRDQGSSALSGVG [IKZF1] were 4.97 ± 0.51 and 5.05 ± 0.3. Taken in the same sequence, the figures for LDFLHSANFSLGSINQRLNKRERS [RNF180] were 3.69 ± 0.24 and 3.86 ± 0.4. As for LDLSKPNDLWPTMENLLQATKSHV [DYNC2LI1], the protein stability index reads like this: under setting [1], 3.06 ± 0.28; under setting [2], 3 ± 0.19. On to LDYYKTGIIRCPDGISIPELREAC [BTBD10], for which the protein stability index was found to be 2.42 ± 0.34 under setting [1] and 2.5 ± 0.38 under setting [2]. In the case of LEDGFYLTAFICFLVFILNAGLVW [MFSD9], the protein stability index is, setting by setting: under setting [1], 3.23 ± 0.84; under setting [2], 2.73 ± 0.95. Take LEEDLKEVLRSEAGIELIIEDDIR [MYBL2]: the protein stability index by setting is: under setting [1], 4.66 ± 0.35; under setting [2], 4.68 ± 0.39.

With LEFAYYFRPGHLLANACLPVRTTN [ZSWIM9], the protein stability index reads like this: under setting [1], 2.47 ± 0.67; under setting [2], 2.25 ± 0.28. For the sequence LEGWRPDQLYRRKKDNHALVRETD [ELOA2], the protein stability index runs as follows: under setting [1], 4.45 ± 0.16; under setting [2], 4.57 ± 0.12. Consider LEIPVETITSEVIEKCTTPLSDDH [CRY1], for which the protein stability index runs as follows: under setting [1], 4.8 ± 0.23; under setting [2], 5.02 ± 0.3.

On to LELAQFHNAHQLAAWCLHHICTNY [RHOBTB1], for which the protein stability index runs as follows: under setting [1], 2.7 ± 0.48; under setting [2], 2.59 ± 0.43.

Take LEQMGALAVRGSRRERELERRELA [ZBED3]: the protein stability index reads like this: under setting [1], 5 ± 0.37; under setting [2], 4.76 ± 0.34. Turning to LESLPTDPLLLILSFLDYRDLINC [FBXO3], the protein stability index was 2.84 ± 0.61 under setting [1] and 2.85 ± 0.64 under setting [2]. In the case of LETLPEFRDEKDYPASTSQDSFEA [KCNA3], the protein stability index under setting [1] worked out at 5.38 ± 0.37 and the protein stability index under setting [2] stood at 5.41 ± 0.2. With LEVINLLRKHRELCDVVLVVGAKK [KLHL20], the protein stability index turned out to be 2.37 ± 0.48 under setting [1] and 2.41 ± 0.34 under setting [2]. Sequence LEYLYTDSCCPAGIFQAMCLLICA [RHOBTB3] registered a protein stability index under setting [1] of 3.08 ± 0.45 and a protein stability index under setting [2] of 3.19 ± 0.55.

In the case of LFEEPEDPSNRSFFSEIISSVSDV [PPP2R2C], the protein stability index by setting is: under setting [1], 4.24 ± 0.057; under setting [2], 4.19 ± 0.19.

On to LFLKDVLGDEICCWSFYGQGRKIA [KCTD13], for which the protein stability index reads like this: under setting [1], 2.64 ± 0.42; under setting [2], 2.07 ± 0.55. As to LFSELAEDKENYKKFYEAFSKNLK [HSP90AB1], the protein stability index runs as follows: under setting [1], 2.83 ± 0.23; under setting [2], 3.62 ± 0.17.

Take LFVIRGQPADVFPRLFKEWNITKL [CRY1]: the protein stability index reads like this: under setting [1], 2.18 ± 0.29; under setting [2], 2.24 ± 0.32. For LGCNRQSWCLKRYDLEYWAFHDGQ [TRIM14], the protein stability index is 2.5 ± 0.34 under setting [1] and 2.34 ± 0.38 under setting [2].

In turn, LGHREPSAHPVEVFSFDLHEPLSK [TMEM175] came in with a protein stability index under setting [1] of 3.92 ± 0.16 and a protein stability index under setting [2] of 4.17 ± 0.28. In the case of LGHSPVLRNITNSQAPDGRRKSEA [CDC25B], the protein stability index came to 3.77 ± 0.4 under setting [1] and 4.22 ± 0.48 under setting [2]. In the same order, the values of LGIPYYETSVVAQFGIKDVFDNAI [RHOBTB2] are 2.17 ± 0.18 and 2.14 ± 0.23. As for LGLFTLILTEPAQAQKCYRDLALV [INTS3], the protein stability index under setting [1] amounted to 3.14 ± 0.36 and the protein stability index under setting [2] was 2.79 ± 0.35.

For the sequence LGNGLLRKKTLVPGPPGSSRPVKG [FKBP8], the protein stability index reads like this: under setting [1], 3.94 ± 0.12; under setting [2], 4.05 ± 0.47. Turning to LGPPLVRKRIHDSRVAGFNPALQL [TOR1AIP2], the protein stability index turned out to be 3.07 ± 0.28 under setting [1] and 3.03 ± 0.26 under setting [2]. With LGTELAERQGNGQQAMSLAILRVI [KCNA3], the protein stability index under setting [1] was 2.42 ± 0.19 and the protein stability index under setting [2] came to 2.52 ± 0.12. Regarding LGVFLDYEAGVLAFYDVTGGMSHL [TRIM14], the protein stability index is, setting by setting: under setting [1], 2.83 ± 0.5; under setting [2], 2.98 ± 0.82. On to LGVQTGGPGGRRAGEPGHSPADYL [DYRK1B], for which the protein stability index by setting is: under setting [1], 4.34 ± 0.38; under setting [2], 4.3 ± 0.31. Taken in the same sequence, the figures for LHMSQRERTWPPPAMSPYWRTWMT [C22orf15] were 2.31 ± 0.24 and 2.56 ± 0.37. Taken in the same sequence, the figures for LIANIVHDGKPSEGSYRIHVLHHG [USP39] were 2.21 ± 0.2 and 2.19 ± 0.25. Taken in the same sequence, the figures for LIFLSNFPFSLLGLLALAIGLWGL [TSPAN10] were 3.21 ± 0.27 and 2.93 ± 0.25. In turn, LIPKTWYSAEQFCVSRNSHLTSVT [CD207] showed a protein stability index under setting [1] of 2.17 ± 0.32 and a protein stability index under setting [2] of 2.19 ± 0.28. In the same order, the values of LITKNHSQEETSILRCWKCRKCIA [RNF180] are 2.48 ± 0.44 and 2.98 ± 0.58. Turning to LIVTSLLLLPGLNQHGIILKYIGM [ARL6IP1], the protein stability index under setting [2] stood at 3.15 ± 0.81. Consider LKCEMNQMSGEPLDKLNFEAINFC [ACSBG2], for which the protein stability index runs as follows: under setting [1], 2.92 ± 0.41; under setting [2], 3.16 ± 0.31.

On to LKDFTLNETVNSIFAQGAPRSSLA [ADAMTSL2], for which the protein stability index was determined as 3.01 ± 0.17 under setting [1] and 3.26 ± 0.32 under setting [2].

Take LKGYPSLMRSQSPKAQPQTWKSGK [TRIM29]: the protein stability index by setting is: under setting [1], 3.88 ± 0.36; under setting [2], 3.93 ± 0.22.

With LLAAGANVHATTATGDTALTYACE [ANKRD17], the protein stability index runs as follows: under setting [1], 4.13 ± 0.2; under setting [2], 3.9 ± 0.23. LLCLLHFSIVSVAAHLALLLLCGT [RTN2]: the protein stability index runs as follows: under setting [1], 3.19 ± 0.65; under setting [2], 3.33 ± 0.3.

The record behind these values is the supplement of paper PMC10567573.
